Data taken from the supplement of paper PMC6755084.

B1: minF1; a variant is named by its letters at N, in order (parent)
chain: GAGACCGCAACTGAAAAGTTGTTNNNNAANNNNGGNTNNATTTCTGCACGTAGAAGCAAAAGGC

Variants of: B1
Assay: fraction ligated after 30 min (ligated reads / total reads); higher = more ligase activity
Details: with F1*subA RNA substrate (template-directed ligation), 42 °C
Experimental: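 Chip-synthesised pool of minF1 ligase ribozyme variants (single and double substitutions, single to quadruple deletions, bulge and P2 designed variants) was transcribed with T7 and reacted as a pool with excess substrate F1*subA for 30 min at 42 C in 50 mM EPPS pH 8.5, 25 mM MgCl2. Ligated and unligated RNAs were separated by PAGE, barcoded by RT and deep sequenced; fraction ligated = ligated reads / total reads, relative activity = FL / FL of wild-type minF1 (0.76); sequencing FL correlated with PAGE (R2 = 0.98). Sequences are the DNA template of the ribozyme.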

Row | Variant | fraction ligated
1 | GAGACCGCAACTGAAAAGTTGTTACAGAAAGGATGGGTTATTTCTGCACGTAGAAGCAAAAGGC | 0.00192
2 | GAGACCGCAACTGAAAAGTTGTATCAGAAATGAGGGTTAATTTCTGCACGTAGAAGCAAAAGGC | 0.00194
3 | GAGACCGCAACTGAAAAGTTGTATCAGAAAGGTGGTTGAATTTCTGCACGTAGAAGCAAAAGGC | 0.000867
4 | GAGACCGCAACTGAAAAGTTGTTACAGAAATGATGGTTGATTTCTGCACGTAGAAGCAAAAGGC | 0.00398
5 | GAGACCGCAACTGAAAAGTTGTTTCAGAAATGAGGGTTGATTTCTGCACGTAGAAGCAAAAGGC | 0.00463
6 | GAGACCGCAACTGAAAAGTTGTTTCAGAAATGAGGGTTAATTTCTGCACGTAGAAGCAAAAGGC | 0.0022
7 | GAGACCGCAACTGAAAAGTTGTATCAGAAATGAGGTTGAATTTCTGCACGTAGAAGCAAAAGGC | 0.00196
8 | GAGACCGCAACTGAAAAGTTGTTTCAGAAAGGGGGTTGAATTTCTGCACGTAGAAGCAAAAGGC | 0.00299
9 | GAGACCGCAACTGAAAAGTTGTTACAGAAAGATGGTTGAATTTCTGCACGTAGAAGCAAAAGGC | 0.00246
10 | GAGACCGCAACTGAAAAGTTGTTACAGAAAGGTGGGTTAATTTCTGCACGTAGAAGCAAAAGGC | 0.00348
11 | GAGACCGCAACTGAAAAGTTGTTACAGAAAGGTGGGTTGATTTCTGCACGTAGAAGCAAAAGGC | 0.00409
12 | GAGACCGCAACTGAAAAGTTGTTTCAGAAATATGGTTGAATTTCTGCACGTAGAAGCAAAAGGC | 0.00261
13 | GAGACCGCAACTGAAAAGTTGTTTCAGAAAGTGGGTTGAATTTCTGCACGTAGAAGCAAAAGGC | 0.00219
14 | GAGACCGCAACTGAAAAGTTGTTTCAGAAAGGATGGGTTATTTCTGCACGTAGAAGCAAAAGGC | 0.000958
15 | GAGACCGCAACTGAAAAGTTGTATCAGAAAGGATGGTTAATTTCTGCACGTAGAAGCAAAAGGC | 0.0014
16 | GAGACCGCAACTGAAAAGTTGTATCAGAAATATGGTTGAATTTCTGCACGTAGAAGCAAAAGGC | 0.00254
17 | GAGACCGCAACTGAAAAGTTGTTACAGAAATGATGGGTTATTTCTGCACGTAGAAGCAAAAGGC | 0.000925
18 | GAGACCGCAACTGAAAAGTTGTTTCAGAAATGATGGGTTGTTTCTGCACGTAGAAGCAAAAGGC | 0.00127
19 | GAGACCGCAACTGAAAAGTTGTATCAGAAATGGGGGTTAATTTCTGCACGTAGAAGCAAAAGGC | 0.00335
20 | GAGACCGCAACTGAAAAGTTGTATCAGAAAGGATGGGTTATTTCTGCACGTAGAAGCAAAAGGC | 0.000421
21 | GAGACCGCAACTGAAAAGTTGTTACAGAAATGGGGGTTGATTTCTGCACGTAGAAGCAAAAGGC | 0.00567

Row | Variant | fraction ligated
22 | GAGACCGCAACTGAAAAGTTGTTACAGAAATGGGGGTTAATTTCTGCACGTAGAAGCAAAAGGC | 0.00187
23 | GAGACCGCAACTGAAAAGTTGTTTCAGAAATGGATGGGTTTTTCTGCACGTAGAAGCAAAAGGC | 0.00121
24 | GAGACCGCAACTGAAAAGTTGTTACAGAAATGGATGGGTTTTTCTGCACGTAGAAGCAAAAGGC | 0.00109
25 | GAGACCGCAACTGAAAAGTTGTTACAGAAATGGAGGTTAATTTCTGCACGTAGAAGCAAAAGGC | 0.00284
26 | GAGACCGCAACTGAAAAGTTGTTACAGAAATGGTGGTTAATTTCTGCACGTAGAAGCAAAAGGC | 0.00288
27 | GAGACCGCAACTGAAAAGTTGTTTCAGAAAGGAGGGTTAATTTCTGCACGTAGAAGCAAAAGGC | 0
28 | GAGACCGCAACTGAAAAGTTGTTTCAGAAAGGAGGGTTGATTTCTGCACGTAGAAGCAAAAGGC | 0.00573
29 | GAGACCGCAACTGAAAAGTTGTTTCAGAAATGATGGTTAATTTCTGCACGTAGAAGCAAAAGGC | 0.00143
30 | GAGACCGCAACTGAAAAGTTGTATCAGAAAGATGGTTGAATTTCTGCACGTAGAAGCAAAAGGC | 0.00203
31 | GAGACCGCAACTGAAAAGTTGTATCAGAAAGGAGGGTTGATTTCTGCACGTAGAAGCAAAAGGC | 0.0042
32 | GAGACCGCAACTGAAAAGTTGTTACAGAAAGGAGGTTGAATTTCTGCACGTAGAAGCAAAAGGC | 0.00191
33 | GAGACCGCAACTGAAAAGTTGTTACAGAAAGGTGGTTGAATTTCTGCACGTAGAAGCAAAAGGC | 0.00073
34 | GAGACCGCAACTGAAAAGTTGTATCAGAAAGGAGGGTTAATTTCTGCACGTAGAAGCAAAAGGC | 0.00164
35 | GAGACCGCAACTGAAAAGTTGTTTCAGAAATGATGGTTGATTTCTGCACGTAGAAGCAAAAGGC | 0.00362
36 | GAGACCGCAACTGAAAAGTTGTTTCAGAAAGGTGGGTTGATTTCTGCACGTAGAAGCAAAAGGC | 0.00329
37 | GAGACCGCAACTGAAAAGTTGTTTCAGAAAGGTGGGTTAATTTCTGCACGTAGAAGCAAAAGGC | 0.0016
38 | GAGACCGCAACTGAAAAGTTGTATCAGAAATGATGGGTTGTTTCTGCACGTAGAAGCAAAAGGC | 0.00258
39 | GAGACCGCAACTGAAAAGTTGTATCAGAAATATGGGTTAATTTCTGCACGTAGAAGCAAAAGGC | 0.00212
40 | GAGACCGCAACTGAAAAGTTGTTACAGAAATAGGGTTGAATTTCTGCACGTAGAAGCAAAAGGC | 0.00391
41 | GAGACCGCAACTGAAAAGTTGTATCAGAAAGGATGGGTTGTTTCTGCACGTAGAAGCAAAAGGC | 0.000303
42 | GAGACCGCAACTGAAAAGTTGTTACAGAAAGGATGGTTGATTTCTGCACGTAGAAGCAAAAGGC | 0.00588
